This is an account of results in patent US20140303084.

The subject of data set [1] is T1, PRIRTVGPGSRSASGKLTCLASYCWLFWTSIA
T1 sequence: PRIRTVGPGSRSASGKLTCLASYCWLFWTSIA

Data set [2] concerns T2, SKQGRPISPDrRAAGKLTCLASYCW-NMeLeu-FWTGIA.
T2 sequence: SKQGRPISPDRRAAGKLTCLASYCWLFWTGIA

The test system of data set [3] is T3, RRAPGKLTCLASYcWLFWTGIA
T3 sequence: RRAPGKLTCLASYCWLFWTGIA

The subject of another data set is T4, RSTVSQMRCLASYCWLFPALVS
T4 sequence: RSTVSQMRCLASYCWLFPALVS

The next data set deals with T5, KLT-Dab-LASY-Glu-WLF.
T5 sequence: KLTXLASYEWLF

For data set [4], the system named is T6, RRAPGKLTcLASYCWLFWTGIA
T6 sequence: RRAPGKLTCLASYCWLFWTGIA

The subject of data set [5] is T7, AVDSLPLYGA RSAPS KLTCLASYCWLFWTGIA
T7 sequence: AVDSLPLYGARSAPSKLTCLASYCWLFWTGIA

The subject of data set [6] is T8, PARGKERELM RRAPG KLTCLASYCWLFWTGIA
T8 sequence: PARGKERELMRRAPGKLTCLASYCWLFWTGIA

Another data set deals with T9, R-k-MeLeu-TCLASYCWLF
T9 sequence: RKLTCLASYCWLF

For the next data set, the system named is T10, RRRRRKLTCLASYCWLFRRRRR
T10 sequence: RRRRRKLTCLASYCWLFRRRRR

For data set [7], the system named is T11, PNLLRVRTSE VRNPG KLTCLASYCWLFWTGIA
T11 sequence: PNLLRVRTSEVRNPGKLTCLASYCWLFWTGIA

Data set [8] has as its system T12, RRAPGKLTCLASYACLFWTGIA-CONH2.
T12 sequence: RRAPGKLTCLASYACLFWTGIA

The next data set relates to T13, rRAPGKLTCLASYCWLSWTGIA
T13 sequence: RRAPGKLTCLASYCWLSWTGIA

Another data set deals with T14, KLTCLASYAWLF
T14 sequence: KLTCLASYAWLF

For data set [9], the system named is T15, C(PEG5K)GGGLVPRGGG-RRAPGKLT-Asp-LASY-Lys-WLFWTGIA
T15 sequence: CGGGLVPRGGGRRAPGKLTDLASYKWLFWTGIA

Data set [10] concerns T16, SKQGAPISPDrRAAGKLTCLASYCWLFWTGIA
T16 sequence: T2 sequence with R5A

A further data set has as its system T17, KLSCQAGQCWVF
T17 sequence: KLSCQAGQCWVF

For data set [11], the system named is T18, AVVRGQEPTH RRTPG KLTCLASYCWLFWTGIA
T18 sequence: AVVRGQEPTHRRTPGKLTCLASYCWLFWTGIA

A further data set relates to T19, kLTCLASYCWLF
T19 sequence: KLTCLASYCWLF

Where a chain is given by its changes, count along the chain named.

Regarding human Factor IXa, the Vmax, FXa generation assay is greater than 3 in [1]; greater than 1.9 in data set [2]; greater than 3 in data set [6]; greater than 3 in the data set on R-k-MeLeu-TCLASYCWLF; greater than 2 in the data set on RRRRRKLTCLASYCWLFRRRRR; greater than 3 in [8]. The Vmax, FXa generation assay is greater than 1.8 with rRAPGKLTCLASYCWLSWTGIA; greater than 3 in data set [10]; greater than 2 in the data set with KLSCQAGQCWVF; greater than 3 in data set [11]; greater than 2 in the data set on kLTCLASYCWLF. Also, the “Vmax, FXa generation assay; (++) means 1-2” value (in the data set with RRAPGKLTCLASYcWLFWTGIA [3]; in the data set with RSTVSQMRCLASYCWLFPALVS; with KLT-Dab-LASY-Glu-WLF; with RRAPGKLTcLASYCWLFWTGIA [4]; in data set [5]; in data set [7]) was “(++)” throughout. Moreover, the “Vmax, FXa generation assay; (++) means 1-2” value (in the data set with KLTCLASYAWLF; in data set [9]) was “(++)” each time.
